For two molecules, pAMPK (pT172) levels by ELISA in healthy-iRPE in serum-deprived medium, 0.2 µg/mL gCTRP5 for 30 min and pAMPK (pT172) levels by ELISA in healthy-iRPE in serum-free medium, recombinant full-length CTRP5 results are on record in publication PMC8660775.

The target in this experiment is T1, Adiponectin receptor 1 (ADIPOR1), endogenous in iPSC-derived RPE (human (endogenous in iPSC-derived RPE)) (UniProt Q96A54).
T1 sequence: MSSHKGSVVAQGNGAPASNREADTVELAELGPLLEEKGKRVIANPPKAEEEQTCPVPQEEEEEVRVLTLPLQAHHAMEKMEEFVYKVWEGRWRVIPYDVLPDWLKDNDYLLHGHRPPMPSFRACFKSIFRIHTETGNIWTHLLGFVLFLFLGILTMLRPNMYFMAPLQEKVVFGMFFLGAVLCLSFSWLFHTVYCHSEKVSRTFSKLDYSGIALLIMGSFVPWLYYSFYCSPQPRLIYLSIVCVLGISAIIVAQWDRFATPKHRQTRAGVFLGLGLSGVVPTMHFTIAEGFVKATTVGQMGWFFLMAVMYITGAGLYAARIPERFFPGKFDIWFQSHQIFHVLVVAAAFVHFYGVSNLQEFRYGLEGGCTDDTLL

Take “recombinant CTRP5 globular domain (domain or fragment)”: the pAMPK (pT172) levels by ELISA in healthy-iRPE in serum-deprived medium, 0.2 µg/mL gCTRP5 for 30 min was 20 % decrease.

B1: recombinant CTRP5 full length (ligand)
chain: SPPLDDNKIPSLCPGHPGLPGTPGHHGSQGLPGRDGRDGRDGAPGAPGEKGEGGRPGLPGPRGDPGPRGEAGPAGPTGPAGECSVPPRSAFSAKRSESRVPPPSDAPLPFDRVLVNEQGHYDAVTGKFTCQVPGVYYFAVHATVYRASLQFDLVKNGESIASFFQFFGGWPKPASLSGGAMVRLEPEDQVWVQVGVGDYIGIYASIKTDSTFSGFLVYSDWHSSPVFA
Take B1: the pAMPK (pT172) levels by ELISA in healthy-iRPE in serum-free medium, recombinant full-length CTRP5 at 0.2, 2 and 25 µg/mL is 50 % reduction.
